Consider 41 sequences from the nanobody polyreactivity screen of Harvey et al. (2022).

This data set is described as follows: yeast display, Sf9 membrane polyspecificity reagent, FACS + sequencing; frameworks hold sequencing errors. The procedure, abridged: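 A synthetic nanobody library was expressed on Saccharomyces cerevisiae BJ5465 by galactose induction for 36–48 hours. The library was stained for 1 hour at 4 °C with 10% biotinylated, detergent-solubilized Sf9 membrane reagent and enriched with streptavidin microbeads before FACS. Low and high (top ~1%) gates were set on anti-HA fluorescence for expression and streptavidin fluorescence for reagent binding, and each polyreactivity label reflects the gate of origin.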
Regarding “QLHLVESGGGLVQAGGSLRLSCAASGLTFDQYAMGWYRQAPGKERELVAAISGSDSTYYADSVKGRFTISRDNAKNTVYLQMNSLKPEDTAVYYCAASGDYVNIITGERFDARLYDYWGQGTQVTVSS”, the “polyreactivity (PSR sort gate)” value is “low polyreactivity”.

For “QLHLVESGGGLVQAGGSLRLSCAASVSIFNIYAMGWYRQAPGKERELVATITGIADSTYYADSVKGRFTISRDNAKNTVYLQMNSLKPEDTAVYYCAADKYVAEYDYWGQGTQVTVSS”, the “polyreactivity (PSR sort gate)” value is listed as “low polyreactivity”.

Regarding “QLKLVESGGGLVQAGASLRLSCAASGSIFYGYTMGWYRQAPGKERELVAGISTYYADSVKGRFTISRDNAKNTVYLQMNSLKPEDTEVYYCAADYSSTTSEYDYWGQGTQVTVSS”, the “polyreactivity (PSR sort gate)” value is “low polyreactivity”.

In the case of “QLQHVESGGCLDQAGGSLRLSCAASGGIIPYRGWYRQAPGKQRELVASITSSGGSTYYADSVKGRFTISRDNAKNTVYLQMNSLKPEDTAVFYCAADPDFYKSVQYDYWGQGTQVTVSS”, the “polyreactivity (PSR sort gate)” value is recorded as “low polyreactivity”.

Take “QLQHVESGGGLVQAGGRLRLSCAASGFTFYYYAMGWYRPEPGKERELVAAISSTGGSTYYADSVKGRFTISRDNAKNTVYLQMNSMKPEDTAVYYCNAACYRYPGDYDYWGQGTQVTVSS”: the “polyreactivity (PSR sort gate)” value is “high polyreactivity”.

In the case of “QLQIVESGGGLVQAGGSLRLSCAASGRIFSYNAMGWYIQAPGKARELVAAITFSGGGTYYADSVKGRFTISRDNAKNTVYLQMNSLNPEYTAVYYCNKVSYGYSTYGYWGQCTQVTVSS”, the “polyreactivity (PSR sort gate)” value is reported as “low polyreactivity”.

As for “QLQIVESGGGLVQAGGSLRLSCAASGSTFSYNAMGWYRQAPRKQRELVASISTSGGSTYYADSVKGRFTISRDNANNTVYLEMNSLKPEDTAVYYCNAPTSDIYSDFDSWGQGTQVTVSS”, the “polyreactivity (PSR sort gate)” value is reported as “low polyreactivity”.

Take “QLQLAESGGGLVQAGGSLRLSCAASGSTFEINAMGWYRQAPWKERELVAAISKRGGNTYYADSVKGRFTISRDNAKNTVYLQMNSLKPEVTAVYYCSADSDSHYFFYVRWVGERYEYWGQGTQVTVSS”: the “polyreactivity (PSR sort gate)” value is given as “high polyreactivity”.

For “QLQLEESAGGLVQAGGSLRLSCAASGSIFSDNAMGWYRQAPGKERELVASINSGGSTNYADSVKGRFTISRDNAKNTVYLQMNSLKPEYTAVYYFNKEDEVVYPGYPNGGMDYWGQGTQVTVSS”, the “polyreactivity (PSR sort gate)” value is recorded as “low polyreactivity”.

On to “QLQLEESGGGLVQAGGSLRLSCAASGRTFRYYSMGWYRHAPGKEREMVAAISSSGDRTYYADSVKGRFTISRDNATNTVYIQMNSLKPEDTAVYYCANVPYYSRPHDYWGQGTQVTVSS”, for which the “polyreactivity (PSR sort gate)” value is “high polyreactivity”.

As to “QLQLEESGGGLVQAGGSLRLSCAASGSIFDDYAMGWYRQAPGKERELVAAITSGGSTYYADSVKGRFTISRDNAKNTVYLQLNRLKPEDTAVYYRATRYHWSSSFAPVGAYGYWGQGTQVTVSS”, the “polyreactivity (PSR sort gate)” value is given as “low polyreactivity”.

As to “QLQLEESGGGLVQAGGSLRLSCAASGSTFSRNAMGWYRQAPGNERELVAAITIRGGSTSYADSVKGRFTISRENAKNTVYLQMNSLKPEDTAVYYCYRQSRNAGGYYWGQGTQVTVSS”, the “polyreactivity (PSR sort gate)” value is “low polyreactivity”.

As for “QLQLEESLVGLVQAGGSHPLSCAATGITFFTYTIGWYRQAPGKERELVARIRWDGGSTYYADSVKGRFTISRDNAKNTVYLQMNSLKPEDTAVYYCAADYPYSTYDYWGQGTQVTVSS”, the “polyreactivity (PSR sort gate)” value is “low polyreactivity”.

As to “QLQLQESGGGLVQAVVDLRQSCAESVNIFRDYIMGCYRQAPGKELEFVAGIDRGANTNFADSEKGRFTISRDNAKNTVYLQMNSLKPEDTAVYYCAVHTAIVPEFIYWGLGTQVTVSS”, the “polyreactivity (PSR sort gate)” value is listed as “low polyreactivity”.

For “QLQLQESGSGLEQAGGSLRLSCASSGYISLGDNMGWYRQAPGKEREFVATISVGGITYYVDSVKGRFTISRDIAKNTVYLQRNSLNPEDTAVYYCADLDIYYFRYYYWGQGTQVTVSS”, the “polyreactivity (PSR sort gate)” value was “low polyreactivity”.

As for “QLQLVESGAGLVKAGGSLRISSAASGYTFGRNTMGCYRQAPGKERELVAAITRRGGSTNYADSVKGRFTISRDNAKNTVYLQMNSLKQEDTAVYYCARDYRSYTGSYDSSYDYWGQGTQVTVSS”, the “polyreactivity (PSR sort gate)” value is given as “high polyreactivity”.

For the sequence “QLQLVESGGGLDQAGGSLRLRCASSARIFSGYAIGWYIKAPGKERELVAAITSRSGSTYYADSVKGRFTISRDNAKNSVYFQMNSLKPEDTAVYYCAAEYVRFYWYTSDYWGQGTQVTVSS”, the “polyreactivity (PSR sort gate)” value was “low polyreactivity”.

Regarding “QLQLVESGGGLGQAGGSLRLSCAASGSIFDHYAMGWYRQAPGKERELVASMSKCGGSTYYADSVKGRFTISRDNAKNTVYLQMNSLKPEDTAVYYCASKQYYRGHNYWGQGTQVTVSS”, the “polyreactivity (PSR sort gate)” value was “high polyreactivity”.

On to “QLQLVESGGGLVKAGGSLRLSCADSGLIFRNNCMGGYRHAPRKERELVAAISNRGGSTYYADSVKGRFTISRDNAKNTVYLQMNSLKPEDTAVYDCNAVASYSQGGYRYDYWGQGTQVTVSS”, for which the “polyreactivity (PSR sort gate)” value is on record as “high polyreactivity”.

Consider “QLQLVESGGGLVQAGASLRLSCADSRRIFDYNVMGRYIQAPGKEREVVADINGSGGGTNYEDSVKGRFTISRDNAKNTVYLQMNILKPEDTAVYYCNADSYEYHVPYYDYRYDYWGQGTQVTVSS”, for which the “polyreactivity (PSR sort gate)” value is “low polyreactivity”.

As to “QLQLVESGGGLVQAGGRLRLSCAASGGIFQTNAMGWYRQAPGKERELVAAISRSAGRTYYADSVKGRFTISRDNAKNTVYLQMTSLKPEDTAVYYCNALRGRFRFDYWGQGTQVTVSS”, the “polyreactivity (PSR sort gate)” value is on record as “high polyreactivity”.

Turning to “QLQLVESGGGLVQAGGSHRLSCAASGSIFTGYAMGRSRQAPGKQREFVAAISWSGSSTYYADSVKGRFTISRDNGKNTVYVQMNSLKPEDTAVYYCNAVKGWWGYYSSVDFDYWGQGTQVTVSS”, the “polyreactivity (PSR sort gate)” value was “low polyreactivity”.

Consider “QLQLVESGGGLVQAGGSLRITCAASGSTFYCYSMACYRQAPGKERALVARISSSSGRTYYADSVKGRFTISRDNAKNTVYLQMNLLKPEDTAVYYCAKYVYGKFDGVRYSYDYWGQGTQVTVSS”, for which the “polyreactivity (PSR sort gate)” value is “low polyreactivity”.

As for “QLQLVESGGGLVQAGGSLRLSCAASGFIFGLYDMGWYREATGKERELVAAISWSGGSTYYADSVKGRFTISRDNAKNTVYLQMNSLKPADTAVYYCNKDLYADGQYNYDYWGLGTQVTVSS”, the “polyreactivity (PSR sort gate)” value is “low polyreactivity”.

For the sequence “QLQLVESGGGLVQAGGSLRLSCAASGFNFPANAMGCYRQAPGKEREFVAAITRRGGSTYYADSVKGRFTISRDYAKNPVYLQMNSLKPEDTAVYYCATYDPARSTQGYDYWGQGTQVTVSS”, the “polyreactivity (PSR sort gate)” value is listed as “high polyreactivity”.

Regarding “QLQLVESGGGLVQAGGSLRLSCAASGFTFSDYARGWYRQAPGKERELVAAINTSGGSTYYADSVKGRFTISRDNAKNTVYLQMNSLKPEDTAVYYCAAKYASLDRRRRKYDYWGQGTQVTVSS”, the “polyreactivity (PSR sort gate)” value is listed as “high polyreactivity”.

Turning to “QLQLVESGGGLVQAGGSLRLSCAASGIIFDGYSRGWYRQAPGKEREFVAAITSGGGSTSYADSVKGRFTISRDYAKNTVYLQMNSLKPEDTAVYYCAARSNRFYVRQRYGYWGQGTQVTVSS”, the “polyreactivity (PSR sort gate)” value is listed as “high polyreactivity”.

Turning to “QLQLVESGGGLVQAGGSLRLSCAASGLTFQYYAMGWYRQAPGKERELVAAISTSGGSTYYADSVKGRFTISRDNAKNTVYLQMNSLKPEDTAVYYCAARGPGYPRIWRKYGYWGQGTQVTVSS”, the “polyreactivity (PSR sort gate)” value is given as “high polyreactivity”.

As to “QLQLVESGGGLVQAGGSLRLSCAASGLTFQYYDMGRYRQAPGKERELVDVIRGSGTSTYYADSVKGRFTISRDNAKNTVYLQMNCLKPEDTAVYYCAAPYQYRRTGRVLGKYDSWGQGTQVTVSS”, the “polyreactivity (PSR sort gate)” value was “high polyreactivity”.

With “QLQLVESGGGLVQAGGSLRLSCAASGLTICRYAMAWYRQAPGKEREFVATISQNGGRTYYADSVKGRFTISRDNAKNTVYLQMNSLKPEDTAVYYCAADDWRWGYDYWGQGTQVTVSS”, the “polyreactivity (PSR sort gate)” value was “high polyreactivity”.

In the case of “QLQLVESGGGLVQAGGSLRLSCAASGRIFEYYAMGWYRQAPGKERELVAAISWSGGSTYYADSVKGRFTISRDNAKNTVYLQMNSLTPEDTAVYYCARDLPYYSISRYDYWGLGTQVTVSS”, the “polyreactivity (PSR sort gate)” value is “high polyreactivity”.

“QLQLVESGGGLVQAGGSLRLSCAASGRIFQSYALGWYRQAPGKESELVAGIRAGGGRTYYADSVKGRFTISRDNAKNTVYLQMNSLKPEDTAVYYCATDFYPRYLLRTYRPYYYWGQGTQVTVSS”: the “polyreactivity (PSR sort gate)” value is given as “low polyreactivity”.

“QLQLVESGGGLVQAGGSLRLSCAASGRIFYVNAMGWYRPAPGKERELVAAISRSGSSTYYADSVKGRFTISRDNAKNTVYLQMNSLKPEDTADYYCAARYYGRSQHHFDYWGQGTQVTVSS”: the “polyreactivity (PSR sort gate)” value is on record as “high polyreactivity”.

Take “QLQLVESGGGLVQAGGSLRLSCAASGRIFYYYTMGWYRQAPGKERELVARITGLTGRTYYADSVKGRFTISRDNAKNTVYLQMNSLKPEDTAVYYCNAVLGYYTYDYWGQGTQVTVSS”: the “polyreactivity (PSR sort gate)” value is on record as “high polyreactivity”.

Take “QLQLVESGGGLVQAGGSLRLSCAASGRTFQIYAMGWYRQAPVNERELVARITGVGSTNYADSVKGRFTISRDNAKNTVYLQMNSLKPEDTAVYYCNKRDGNWEYDYWGQGTQVTVSS”: the “polyreactivity (PSR sort gate)” value is “low polyreactivity”.

For the sequence “QLQLVESGGGLVQAGGSLRLSCAASGRTFSIYAMGWSRQATGKERELVAAIRWSGGSTYYADSVKGRFTISRDNAKNSVYLQMNSLKPEDTAVYYCATRSRGLKFDYWGQGTLVTVSS”, the “polyreactivity (PSR sort gate)” value was “high polyreactivity”.

On to “QLQLVESGGGLVQAGGSLRLSCAASGSIFAIYAMGWYRQAPGKERELVAAISDGGGTNYADSVKGRFTISRDNAKNTVYLQMNSLKPEDTAVYYCAADLGWSTYVSNGPKGYDHWGQGTQVTVSS”, for which the “polyreactivity (PSR sort gate)” value is “low polyreactivity”.

On to “QLQLVESGGGLVQAGGSLRLSCAASGSTFHYYDMGWNRKATGKERELVAAISSGGDSTYYADSVKGRFTISRDNAKNTVYLQMNSLKPEDTAVYYCAAAVYYGQSVWYYYWGQGTQVTVSS”, for which the “polyreactivity (PSR sort gate)” value is given as “high polyreactivity”.

As to “QLQLVESGGGLVQAGGSLRLSCAASGYTFYRYAMGWYRQAPGKERELVAAISSAGTTNYADSVKGRFTISRDNAKKTVYFQMNSLKPEDTAVYYCNKRGRNHNSLKYGYWGQGTQVTVSS”, the “polyreactivity (PSR sort gate)” value was “high polyreactivity”.

As to “QLQLVESGGGLVQAGGSLRLSCAATGYISNAMGWYRQPPGKERELVAAISRSGGSTYYADSVKGRFTISRDNAKNTVYLQMNSLKPEDTAVYYCAADYTYHDRRLDYWGQGTQVTVSS”, the “polyreactivity (PSR sort gate)” value is given as “low polyreactivity”.

As to “QLQLVESGGGLVQAGGSLRLSCADSGSTFRYNVMGWYRQAPGNETQLVAAIRDSGDRTYYADSVKGRFTISRDNAKNTVYLQMNSLKPEDTAVYYCNARWQEPLKYDYWGQGTQVTVSS”, the “polyreactivity (PSR sort gate)” value is given as “low polyreactivity”.
